Test results: patent US20190256588A1 (BEIJING HANMI PHARM, published 2019)

Assays:
recombinant human IL-17C = target: T1, recombinant human IL-17C (human, UniProt Q9P0M4 19-197); assay: ELISA, cytokine coated on plate at 1 µg/mL
T1 sequence (looked up): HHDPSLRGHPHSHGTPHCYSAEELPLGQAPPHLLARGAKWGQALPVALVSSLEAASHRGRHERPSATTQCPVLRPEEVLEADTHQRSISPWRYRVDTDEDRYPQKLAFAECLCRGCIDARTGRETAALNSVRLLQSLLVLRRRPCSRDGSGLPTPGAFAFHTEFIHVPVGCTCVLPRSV
Description: (§1) Recombinant human IL-17A, IL-17B, IL-17C, IL-17D, IL-17E, IL-17F, IL-1, IL-2, IL-6, IL-8, IL-21, IL-22, IL-23, IFN-g and TNFα (purchased from Sino Biological Inc. or R&D systems) were coated on a 96-well high-absorbing ELISA plate with a carbonate buffer solution with pH 9.6, the coating concentration was 1 μg/mL, the coating amount was 100 μL per well, and the coating was carried ax 4° C. out overnight. The plate was washed five times with PBST and blocked with 300 μL/well of PBST containing 1% BSA and incubated at 25° C. for 1 hour. The plate was washed five times with PBST. […] The plate was washed five times with PBST. Then, horseradish peroxidase-labeled anti-human IgG antibody (Chemicon, Catalog Number AP309P) 1:2000 diluted in PBST containing 1% BSA was added, 100 μL was added to each well, incubated at 25° C. for 1 hour. The plate was washed five times with PBST. 100 μL/well of colorimetric substrate TMB was added and incubated at room temperature for 10 minutes. Color development was terminated by adding 100 μL/well of 1 M H₂SO₄. The absorbance at 450 nm was read on a microplate reader.
(§2) Recombinant human IL-17A, IL-17B, IL-17C, IL-17D, IL-17E, IL-17F, IL-1, IL-2, IL-6, IL-8, IL-21, IL-22, IL-23, IFN-g and TNFα (purchased from Sino Biological Inc. or R&D systems) were coated on a 96-well high-absorbing ELISA plate with a carbonate buffer solution with pH 9.6, the coating concentration was 1 μg/mL, the coating amount was 100 μL per well, and the coating was carried at 4° C. out overnight. Washed five times with PBST. Blocked with 300 μL/well of PBST containing 1% BSA and incubated at 25° C. for 1 hour. Washed five times with PBST.

recombinant human IL-17E = target: T2, recombinant human IL-17E (human, UniProt Q9H293 33-177); assay: ELISA, cytokine coated on plate at 1 µg/mL
T2 sequence (looked up): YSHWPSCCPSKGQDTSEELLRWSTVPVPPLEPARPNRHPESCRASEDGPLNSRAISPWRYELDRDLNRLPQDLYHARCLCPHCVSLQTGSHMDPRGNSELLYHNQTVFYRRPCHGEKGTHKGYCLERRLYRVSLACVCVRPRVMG
Description: as §1, §2

recombinant human IL-23 = target: T3, recombinant human IL-23 (human, UniProt Q9NPF7 20-189; P29460 23-328); assay: ELISA, cytokine coated on plate at 1 µg/mL
T3 sequence (looked up) 1: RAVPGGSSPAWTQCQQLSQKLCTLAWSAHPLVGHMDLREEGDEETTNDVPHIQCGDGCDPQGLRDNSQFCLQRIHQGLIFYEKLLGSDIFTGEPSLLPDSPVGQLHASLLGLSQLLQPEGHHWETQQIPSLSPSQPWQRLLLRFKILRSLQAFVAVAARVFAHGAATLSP
T3 sequence (looked up) 2: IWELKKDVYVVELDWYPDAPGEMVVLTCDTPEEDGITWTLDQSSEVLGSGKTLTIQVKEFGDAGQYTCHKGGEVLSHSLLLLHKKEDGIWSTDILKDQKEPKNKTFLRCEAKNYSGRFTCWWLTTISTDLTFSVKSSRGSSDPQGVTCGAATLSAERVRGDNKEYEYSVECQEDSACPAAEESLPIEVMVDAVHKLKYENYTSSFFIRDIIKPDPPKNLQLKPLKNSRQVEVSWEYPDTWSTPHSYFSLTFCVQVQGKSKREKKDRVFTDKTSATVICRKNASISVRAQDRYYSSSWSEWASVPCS
Description: as §1, §2

recombinant human IL-17A = target: T4, recombinant human IL-17A (human, UniProt Q16552 24-155); assay: SPR, Biacore 3000, human IL-17A coupled to CM5 chip, antibody injected
T4 construct: also called IL-17A antigen
T4 sequence (Q16552 24-155 limits assumed): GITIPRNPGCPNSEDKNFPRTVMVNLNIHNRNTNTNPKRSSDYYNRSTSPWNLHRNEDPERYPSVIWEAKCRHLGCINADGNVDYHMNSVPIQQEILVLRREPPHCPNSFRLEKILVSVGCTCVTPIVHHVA
Description: The instrument utilizes an optical surface plasmon resonance technique to detect association and dissociation between a molecule coupled on a sensor chip and an analyte. CM5 chips (GE Healthcare, BR-1000-12) were used. Brief experiment procedure was as follow: human IL-17A was dissolved in sodium acetate buffer (pH 5.0) and coupled to CM chip by injecting at a speed of 10 μL/min. 1 M ethanolamine was injected at a speed of 10 μL/min for blocking. […] 10 mM glycine solution (pH 2.0) was used for regeneration. Association rate constants and dissociation rate constants were analyzed and calculated by Biacore 3000 control software.

recombinant mouse IL-17A = target: T5, recombinant mouse IL-17A (mouse, UniProt Q62386 26-158, limits assumed); assay: ELISA, recombinant mouse IL-17A coated on the plate, HRP anti-human IgG, OD450nm
T5 sequence (looked up): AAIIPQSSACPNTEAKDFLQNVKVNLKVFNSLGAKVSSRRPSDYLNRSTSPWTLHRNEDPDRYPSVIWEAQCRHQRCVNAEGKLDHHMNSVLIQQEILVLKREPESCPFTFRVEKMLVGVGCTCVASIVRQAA
Description: Recombinant human IL-17A, monkey IL-17A, rat IL-17A and mouse IL-17A (all purchased from Sino Biological Inc.), were coated on a 96-well high-absorbing ELISA plate with a carbonate buffer solution with pH 9.6, the coating concentration was […], the coating amount was 100 μL per well, and the coating was carried out at 4° C. overnight. The plate was washed five times with PBST and blocked with 300 μL/well of PBST containing 1% BSA, and then incubated at 25° C. for 1 hour. The plate was washed five times with PBST. […] The plate was washed five times with PBST. Then, horseradish peroxidase-labeled anti-human IgG antibody (Chemicon, Catalog Number AP309P) 1:2000 diluted in PBST containing 1% BSA was added, 100 μL per well, incubated at 25° C. for 1 hour. The plate was washed five times with PBST. 100 μL/well of colorimetric substrate TMB was added and incubated at room temperature for 10 minutes. Color development was terminated by adding 100 μL/well of 1 M H₂SO₄. The absorbance at 450 nm was read on a microplate reader.

B1: anti-human IL-17A chimeric monoclonal antibody (antibody, human IgG1, kappa, V domains shown)
VH: DVQVQESGPGLVKPSQSLSLTCTVTGNSITSYYAWNWIRQFPGNKLEWMGYITYSGTTSYNPSLKSRISITRDTSKNQFFLQLNSVTTEDTATYYCAREEYDDIYAVDYWGQGTSVTVSS
VL: IIVMTQTPLSLPVSLGDQASISCRSSQSLVHSNGNTYLHWYLQKPGQSPKLLIYKVYNRFSGVPDRFSGSGSGTDFTLKISRVEAEDLGVYFCSQSTHFPTFGGGTKLEIKR
notes: expressed in 293F cells; also called Anti-human IL-17A Chimeric Antibody; chimeric anti-human IL-17A monoclonal antibody
Which results are given for B1?
binding result (recombinant human IL-17C): no binding; binding result (recombinant human IL-17E): no binding; binding result (recombinant human IL-23): no binding; Kd (recombinant human IL-17A): 0.03 nM; koff (recombinant human IL-17A): 1.49e-06 s⁻¹; kon (recombinant human IL-17A): 54100 M⁻¹ s⁻¹; binding result (recombinant mouse IL-17A): no binding (tested: about 20 nM)
